Measured values from patent US20210139542A1.

Legend:
HEWL-Full2 (hen) [1] = target: HEWL-Full2 (hen) (UniProt P00698); experiment: BLI, mAb on AHC biosensor, 100 nM antigen, footnote c bounds the value
HEWL-Full4 (hen) [2] = target: HEWL-Full4 (hen) (UniProt P00698); experiment: as above
HEWL-Full8 (hen) [3] = target: HEWL-Full8 (hen) (UniProt P00698); experiment: as above
HEWL-Hel-108 (hen) [4] = target: HEWL-Hel-108 (hen) (UniProt P00698); experiment: as above
HEWL-Full2 (hen) [5] = target: HEWL-Full2 (hen) (UniProt P00698); experiment: BLI, mAb on AHC biosensor, 100 nM antigen
HEWL-Hel-108 (hen) [6] = target: HEWL-Hel-108 (hen) (UniProt P00698); experiment: BLI, mAb on AHC biosensor, 100 nM antigen
HEWL-Full2 (hen) [7] = target: HEWL-Full2 (hen) (UniProt P00698); experiment: BLI, mAb on AHC biosensor, 100 nM antigen, footnote d bounds the value
HEWL-Full4 (hen) [8] = target: HEWL-Full4 (hen) (UniProt P00698); experiment: as above
HEWL-Full8 (hen) [9] = target: HEWL-Full8 (hen) (UniProt P00698); experiment: BLI, mAb on AHC biosensor, 100 nM antigen, footnote e bounds the value

Substance | Kd (HEWL-Full2 (hen) [1]) | Kd (HEWL-Full4 (hen) [2]) | Kd (HEWL-Full8 (hen) [3]) | Kd (HEWL-Hel-108 (hen) [4]) | Kd (HEWL-Full2 (hen) [5]) | Kd (HEWL-Hel-108 (hen) [6]) | Kd (HEWL-Full2 (hen) [7]) | Kd (HEWL-Full4 (hen) [8]) | Kd (HEWL-Full8 (hen) [9])
HyHEL-5 (antibody) | 0.14 nM | 0.15 nM | 0.18 nM | 0.14 nM |  |  |  |  | 
HyHEL-10 (antibody) |  |  |  |  | 150 nM | 0.092 nM |  |  | 
D1.3 (antibody) |  |  |  |  |  | 5.7 nM | 2.9 nM | 7.9 nM | 12 nM
